Blank lines part the entries; values can stand above or below the binder they belong to. No end group written: not given here. *: point of attachment. Biotin = O=C1N[C@H]2[C@H](CS[C@H]2CCCCC(=O)*)N1
Experiments:
[1] = target: T1, ET140-p2 (human); test: peptide ELISA on streptavidin plate
T1 construct: also called peptide 2
T1 peptide: Biotin-SGSGQMAGQCSQNEYFDSL
Experimental: (§1) The peptides were coated onto Streptavidin plates at 2 ug/mL in PBST (PBS+0.05% Tween-20). After washing and blocking with 3% BSA. […] “mIgG1” used in all Examples represents that the variable region is fully human and the Fc part is mouse IgG1. Then HRP anti-mouse IgG detection antibody was added to each well. Finally, the color was developed using TMB substrate. A450 was recorded for data analysis.

[2] = target: T2, ET140-p3 (human); test: peptide ELISA on streptavidin plate
T2 construct: also called peptide 3
T2 peptide: Biotin-SGSGMAGQCSQNEYFDSLL
Experimental: as §1

[3] = target: T3, ET140-p15 (human, cysteine pairing not given here); test: peptide ELISA on streptavidin plate
T3 construct: also called peptide 15
T3 peptide: Biotin-SGSGSLLHACIPCQLRCSS
Experimental: as §1

[4] = target: T4, ET140-p16 (human, cysteine pairing not given here); test: peptide ELISA on streptavidin plate
T4 construct: also called peptide 16
T4 peptide: Biotin-SGSGLLHACIPCQLRCSSN
Experimental: as §1

[5] = target: T5, ET140-p20 (human, cysteine pairing not given here); test: peptide ELISA on streptavidin plate
T5 construct: also called peptide 20
T5 peptide: Biotin-SGSGCIPCQLRCSSNTPPL
Experimental: as §1

[6] = target: T6, ET140-p21 (human, cysteine pairing not given here); test: peptide ELISA on streptavidin plate
T6 construct: also called peptide 21
T6 peptide: Biotin-SGSGIPCQLRCSSNTPPLT
Experimental: as §1

[7] = target: T7, ET140-p32 (human, cysteine pairing not given here); test: peptide ELISA on streptavidin plate
T7 construct: also called peptide 32
T7 peptide: Biotin-SGSGPPLTCQRYCNASVTN
Experimental: as §1

[8] = target: T8, ET140-p33 (human, cysteine pairing not given here); test: peptide ELISA on streptavidin plate
T8 construct: also called peptide 33
T8 peptide: Biotin-SGSGPLTCQRYCNASVTNS
Experimental: as §1

[9] = target: T1, ET140-p2; test: peptide ELISA, biotin peptide on streptavidin plate
Experimental: as §1

[10] = target: T2, ET140-p3; test: as above
Experimental: as §1

[11] = target: T9, ET140-p5 (human); test: as above
T9 construct: also called peptide 5
T9 peptide: Biotin-SGSGGQCSQNEYFDSLLHA
Experimental: as §1

[12] = target: T10, ET140-p6 (human, cysteine pairing not given here); test: as above
T10 construct: also called peptide 6
T10 peptide: Biotin-SGSGQCSQNEYFDSLLHAC
Experimental: as §1

[13] = target: T11, ET140-p9 (human, cysteine pairing not given here); test: as above
T11 construct: also called peptide 9
T11 peptide: Biotin-SGSGQNEYFDSLLHACIPC
Experimental: as §1

[14] = target: T12, ET140-p10 (human, cysteine pairing not given here); test: as above
T12 construct: also called peptide 10
T12 peptide: Biotin-SGSGNEYFDSLLHACIPCQ
Experimental: as §1

[15] = target: T13, ET140-p12 (human, cysteine pairing not given here); test: as above
T13 construct: also called peptide 12
T13 peptide: Biotin-SGSGYFDSLLHACIPCQLR
Experimental: as §1

[16] = target: T14, ET140-p13 (human, cysteine pairing not given here); test: as above
T14 construct: also called peptide 13
T14 peptide: Biotin-SGSGFDSLLHACIPCQLRC
Experimental: as §1

[17] = target: T4, ET140-p16; test: as above
Experimental: as §1

[18] = target: T15, ET140-p18 (human, cysteine pairing not given here); test: as above
T15 construct: also called peptide 18
T15 peptide: Biotin-SGSGHACIPCQLRCSSNTP
Experimental: as §1

[19] = target: T5, ET140-p20; test: as above
Experimental: as §1

[20] = target: T6, ET140-p21; test: as above
Experimental: as §1

[21] = target: T16, ET140-p22 (human, cysteine pairing not given here); test: as above
T16 construct: also called peptide 22
T16 peptide: Biotin-SGSGPCQLRCSSNTPPLTC
Experimental: as §1

[22] = target: T17, ET140-p23 (human, cysteine pairing not given here); test: as above
T17 construct: also called peptide 23
T17 peptide: Biotin-SGSGCQLRCSSNTPPLTCQ
Experimental: as §1

[23] = target: T18, ET140-p25 (human, cysteine pairing not given here); test: as above
T18 construct: also called peptide 25
T18 peptide: Biotin-SGSGLRCSSNTPPLTCQRY
Experimental: as §1

[24] = target: T19, ET140-p26 (human, cysteine pairing not given here); test: as above
T19 construct: also called peptide 26
T19 peptide: Biotin-SGSGRCSSNTPPLTCQRYC
Experimental: as §1

[25] = target: T20, ET140-p27 (human, cysteine pairing not given here); test: as above
T20 construct: also called peptide 27
T20 peptide: Biotin-SGSGCSSNTPPLTCQRYCN
Experimental: as §1

[26] = target: T21, ET140-p28 (human, cysteine pairing not given here); test: as above
T21 construct: also called peptide 28
T21 peptide: Biotin-SGSGSSNTPPLTCQRYCNA
Experimental: as §1

[27] = target: T22, ET140-p29 (human, cysteine pairing not given here); test: as above
T22 construct: also called peptide 29
T22 peptide: Biotin-SGSGSNTPPLTCQRYCNAS
Experimental: as §1

[28] = target: T23, ET140-p30 (human, cysteine pairing not given here); test: as above
T23 construct: also called peptide 30
T23 peptide: Biotin-SGSGNTPPLTCQRYCNASV
Experimental: as §1

[29] = target: T24, ET140-p37 (human); test: as above
T24 construct: also called peptide 37
T24 peptide: Biotin-SGSGQRYCNASVTNSVKGT
Experimental: as §1

[30] = target: T25, ET140-p38 (human); test: as above
T25 construct: also called peptide 38
T25 peptide: Biotin-SGSGRYCNASVTNSVKGTN
Experimental: as §1

[31] = target: T26, ET140-p39 (human); test: as above
T26 construct: also called peptide 39
T26 peptide: Biotin-SGSGYCNASVTNSVKGTNA
Experimental: as §1

[32] = target: T18, ET140-p25; test: peptide ELISA on streptavidin plate, antibody 1 ug/mL
Experimental: as §1

[33] = target: T19, ET140-p26; test: as above
Experimental: as §1

binding result [1]: no binding (tested: 1 ug/mL)
binding result [2]: no binding (tested: 1 ug/mL)
binding result [3]: no binding (tested: 1 ug/mL)
binding result [4]: no binding (tested: 1 ug/mL)
binding result [5]: no binding (tested: 1 ug/mL)
binding result [6]: no binding (tested: 1 ug/mL)
binding result [7]: no binding (tested: 1 ug/mL)
binding result [8]: no binding (tested: 1 ug/mL)
B1: ET140-153 mIgG1 (antibody, V domains shown)
VH: QVQLVQSGAEVKKPGSSVKVSCKASGGTFSSYAISWVRQAPGQGLEWMGRIIPILGIANYAQKFQGRVTITADKSTSTAYMELSSLRSEDTAVYYCARGGYYSHDMWSEDWGQGTLVTVSS
VL: LPVLTQPPSASGTPGQRVTISCSGRSSNIGSNSVNWYRQLPGAAPKLLIYSNNQRPPGVPVRFSGSKSGTSASLAISGLQSEDEATYYCATWDDNLNVHYVFGTGTKVTVLG
notes: also called ET140-3 mIgG1; ET140-3

binding result [9]: no binding (tested: 1 ug/mL)
binding result [10]: no binding (tested: 1 ug/mL)
binding result [11]: no binding (tested: 1 ug/mL)
binding result [12]: no binding (tested: 1 ug/mL)
binding result [13]: no binding (tested: 1 ug/mL)
binding result [14]: no binding (tested: 1 ug/mL)
binding result [15]: no binding (tested: 1 ug/mL)
binding result [16]: no binding (tested: 1 ug/mL)
binding result [17]: no binding (tested: 1 ug/mL)
binding result [18]: no binding (tested: 1 ug/mL)
binding result [19]: no binding (tested: 1 ug/mL)
binding result [20]: no binding (tested: 1 ug/mL)
binding result [21]: no binding (tested: 1 ug/mL)
binding result [22]: no binding (tested: 1 ug/mL)
binding result [23]: no binding (tested: 1 ug/mL)
binding result [24]: no binding (tested: 1 ug/mL)
binding result [25]: no binding (tested: 1 ug/mL)
binding result [26]: no binding (tested: 1 ug/mL)
binding result [27]: no binding (tested: 1 ug/mL)
binding result [28]: no binding (tested: 1 ug/mL)
binding result [29]: no binding (tested: 1 ug/mL)
binding result [30]: no binding (tested: 1 ug/mL)
binding result [31]: no binding (tested: 1 ug/mL)
A450 [32]: 0.494
A450 [33]: 0.2
B2: ET140-204 mIgG1 (antibody, V domains shown)
VH: EVQLVQSGAEMKKPGASLKLSCKASGYTFIDYYVYWMRQAPGQGLESMGWINPNSGGTNYAQKFQGRVTMTRDTSISTAYMELSRLRSDDTAMYYCARSQRDGYMDYWGQGTLVTVSS
VL: QSALTQPASVSASPGQSIAISCTGTSSDVGWYQQHPGKAPKLMIYEDSKRPSGVSNRFSGSKSGNTASLTISGLQAEDEADYYCSSNTRSSTLVFGGGTKLTVLG
notes: also called ET140-54 mIgG1; ET140-54

binding result [9]: no binding (tested: 1 ug/mL)
binding result [10]: no binding (tested: 1 ug/mL)
binding result [11]: no binding (tested: 1 ug/mL)
binding result [12]: no binding (tested: 1 ug/mL)
binding result [13]: no binding (tested: 1 ug/mL)
binding result [14]: no binding (tested: 1 ug/mL)
binding result [15]: no binding (tested: 1 ug/mL)
binding result [16]: no binding (tested: 1 ug/mL)
binding result [17]: no binding (tested: 1 ug/mL)
binding result [18]: no binding (tested: 1 ug/mL)
binding result [19]: no binding (tested: 1 ug/mL)
binding result [20]: no binding (tested: 1 ug/mL)
binding result [21]: no binding (tested: 1 ug/mL)
binding result [22]: no binding (tested: 1 ug/mL)
binding result [23]: no binding (tested: 1 ug/mL)
binding result [24]: no binding (tested: 1 ug/mL)
binding result [25]: no binding (tested: 1 ug/mL)
binding result [26]: no binding (tested: 1 ug/mL)
binding result [27]: no binding (tested: 1 ug/mL)
binding result [28]: no binding (tested: 1 ug/mL)
binding result [29]: no binding (tested: 1 ug/mL)
binding result [30]: no binding (tested: 1 ug/mL)
binding result [31]: no binding (tested: 1 ug/mL)
A450 [32]: 0.537
A450 [33]: 0.212
B3: ET140-174 mIgG1 (antibody, V domains shown)
VH: EVQLVQSGAEVKKPGESLKISCKGSGYSFTSYWIGWVRQMPGKGLEWMGIIYPGDSDTRYSPSFQGHVTISADKSISTAYLQWSSLKASDTAMYYCARYSGSFDNWGQGTLVTVSS
VL: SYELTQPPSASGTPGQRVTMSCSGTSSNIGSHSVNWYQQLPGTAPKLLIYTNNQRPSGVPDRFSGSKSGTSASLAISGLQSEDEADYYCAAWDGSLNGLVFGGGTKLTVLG
notes: also called ET140-24 mIgG1; ET140-24

From patent publication US20210346432A1 (Memorial Sloan Kettering, published 2021)
